We go through 10 proteins from US20090208440.

The target of data set [1] is peptide with the desired target sequence of TNF-alpha.
A further data set concerns the target T1, substrate A.
T1 chain: LLWLGRVVGGPV

The target of the next data set is T2, substrate B.
T2 chain: KKWLGRVPGGPV

In data set [2] the target is proteins from human blood serum.

Sequence of human TNF-alpha (chain, as listed by the source): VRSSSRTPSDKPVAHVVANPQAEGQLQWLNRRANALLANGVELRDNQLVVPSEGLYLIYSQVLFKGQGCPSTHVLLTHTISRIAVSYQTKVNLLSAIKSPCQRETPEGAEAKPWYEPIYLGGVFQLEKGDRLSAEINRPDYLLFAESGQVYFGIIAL

B1: variant f (protein)
chain: IVGGYNCEENSVPYQVSLNSGYHFCGGSLINEQWVVSAGHCYAAFNGDKSRIQVRLGEHNIEVLEGNEQFINAAKIIRHPQYDRKTLNNDIMLIKLSSRAVINARVSTISLPTAPPATGTKCLISGWGNRKDFWTASSGADYPDELQCLDAPVLSQAKCEASYPGKITSNMFCVGFLEGGKDSCQGDSGGPVVCNGQLQGVVSWGDGCAQKNKPGVYTKVYNYVKWIKNTIAANS
Consider B1, for which, in data set [1], the k with comp./k without comp. was 0.487.

B2: Variant 3 (protein)
chain: IVGGYNCEENSVPYQVSLNSGYHFCGGSLINEQWVVSAGHCYAATNGDKSRIQVRLGEHNIEVLEGNEQFINAAKIIRHPQYDRKTLNNDIMLIKLSSRAVINARVSTISLPTAPPATGTKCLISGWGNRKDFWTASSGADYPDELQCLDAPVLSQAKCEASYPGKITSNMFCVGFLEGGKDSCQGDSGGPVVCNGQLQGVVSWGDGCAQKNKPGVYTKVYNYVKWIKNTIAANS
On to B2, for which the “rate constants of proteolytic digestion (proportional to kcat/KM), relative to human trypsin I” value (“rate constants … relative to human trypsin I” below) with substrate A and with substrate B was “serves as a negative control with similar activities as the human trypsin I” in each case.

B3: Variant 2 (protein)
chain: IVGGYNCEENSVPYQVSLNSGYHFCGGSLINEQWVVSAGHCYNGRDLEKSRIQVRLGEHNIEVLEGNEQFINAAKIIRHPQYDRKTLNNDIMLIKLSSRAVINARVSTISLPTAPPATGTKCLISGWGNVRGTWTASSGADYPDELQCLDAPVLSQAKCEASYPGKITSNMFCVGFLEGGKDSCQGDSGGPVVCNGQLQGVVSWGDGCAQKNKPGVYTKVYNYVKWIKNTIAANS
In the case of B3, the “rate constants … relative to human trypsin I” value in the data set with substrate B is “the specific activity of variants 1 and 2 is shifted (SEQ ID NOs: 2 and 3, respectively) towards substrate B”.

B4: variant x (protein)
chain: IVGGYNCEENSVPYQVSLNSGYHFCGGSLINEQWVVSAGHCYAAFNGKSRIQVRLGEHNIGVLEGNEQFINAAKIIRHPQYDWKTLNNDIMLIKLSSRAVINARVSTISLPTAPPATGTKCLISGWGNRKDFWTASSGADFPDELQCLDAPVLSQTKCEASYPGKITSNMFCVGFLEGGKDSCQGDSGGPVVRNGQLQGVVSWGDGCAQKNKPGVYTKVYNYVKWIKNTIAANS
On to B4, for which the “remaining intact protein as a function of time (proteolytic digestion)” value in the data set with human TNF-alpha was “the variants as well as human trypsin I digest human TNF-alpha”; in data set [2], “only trypsin shows activity on serum protein”.

B5: variant e (protein)
chain: IVGGYNCEENSVPYQVSLNSGYHFCGGSLINEQWVVSAGHCYVNIMAAKSRIQVRLGEHNIEVLEGNEQFINAAKIIRHPQYDRKTLNNDIMLIKLSSRAVINARVSTISLPTAPPATGTKCLISGWGNTTARKTASSGADYPDELQCLDAPVLSQAKCEASYPGKITSNMFCVGFLEGGKDSCQGDSGGPVVCNGQLQGVVSWGDGCAQKNKPGVYTKVYNYVKWIKNTIAANS
In the case of B5, in data set [1], the k with comp./k without comp. worked out at 0.374.

B6: Variant 1 (protein)
chain: IVGGYNCEENSVPYQVSLNSGYHFCGGSLINEQWVVSAGHCYDAVGRDKSRIQVRLGEHNIEVLEGNEQFINAAKIIRHPQYDRKTLNNDIMLIKLSSRAVINARVSTISLPTAPPATGTKCLISGWGNTITNSTASSGADYPDELQCLDAPVLSQAKCEASYPGKITSNMFCVGFLEGGKDSCQGDSGGPVVCNGQLQGVVSWGDGCAQKNKPGVYTKVYNYVKWIKNTIAANS
Take B6: the “rate constants … relative to human trypsin I” value with substrate B is “the specific activity of variants 1 and 2 is shifted (SEQ ID NOs: 2 and 3, respectively) towards substrate B”.

B7: variant d (protein)
chain: IVGGYNCEENSVPYQVSLNSGYHFCGGSLINEQWVVSAGHCYKAVVGTKSRIQVRLGEHNIEVLEGNEQFINAAKIIRHPQYDRKTLNNDIMLIKLSSRAVINARVSTISLPTAPPATGTKCLISGWGNRTPISTASSGADYPDELQCLDAPVLSQAKCEASYPGKITSNMFCVGFLEGGKDSCQGDSGGPVVCNGQLQGVVSWGDGCAQKNKPGVYTKVYNYVKWIKNTIAANS
Regarding B7, in data set [1], the k with comp./k without comp. was 0.31.

B8: variant b (protein)
chain: IVGGYNCEENSVPYQVSLNSGYHFCGGSLINEQWVVSAGHCYGFVMFNKSRIQVRLGEHNIEVLEGNEQFINAAKIIRHPQYDRKTLNNDIMLIKLSSRAVINARVSTISLPTAPPATGTKCLISGWGNRSPLTTASSGADYPDELQCLDAPVLSQAKCEASYPGKITSNMFCVGFLEGGKDSCQGDSGGPVVCNGQLQGVVSWGDGCAQKNKPGVYTKVYNYVKWIKNTIAANS
With B8, the k with comp./k without comp. in data set [1] turned out to be 0.187.

B9: variant c (protein)
chain: IVGGYNCEENSVPYQVSLNSGYHFCGGSLINEQWVVSAGHCYEIANREKSRIQVRLGEHNIEVLEGNEQFINAAKIIRHPQYDRKTLNNDIMLIKLSSRAVINARVSTISLPTAPPATGTKCLISGWGNRGARTTASSGADYPDELQCLDAPVLSQAKCEASYPGKITSNMFCVGFLEGGKDSCQGDSGGPVVCNGQLQGVVSWGDGCAQKNKPGVYTKVYNYVKWIKNTIAANS
The protein B9 returned a k with comp./k without comp. in data set [1] of 0.235.

B10: variant a (protein)
chain: IVGGYNCEENSVPYQVSLNSGYHFCGGSLINEQWVVSAGHCYRPWDPSKSRIQVRLGEHNIEVLEGNEQFINAAKIIRHPQYDRKTLNNDIMLIKLSSRAVINARVSTISLPTAPPATGTKCLISGWGNVHPTSTASSGADYPDELQCLDAPVLSQAKCEASYPGKITSNMFCVGFLEGGKDSCQGDSGGPVVCNGQLQGVVSWGDGCAQKNKPGVYTKVYNYVKWIKNTIAANS
B10 showed a k with comp./k without comp. in data set [1] of 0.13.
